Experimental data: publication PMC11923092

Experiments:
[1] = SEC; analytical SEC without prior concentration adjustment; cysteine-containing proteins reduced with 0.5 mM TCEP before SEC
[2] = SEC; constructs with partial Aes^N fragments fused to MBP, 30 µM each; aggregate and monomer content
[3] = SEC; construct with a partial Aes^N fragment fused to MBP at 150 µM; aggregate content
[4] = SEC; analytical SEC at 15 °C after dilution to 10 µM and 24 h at 15 °C in 50 mM Tris, 300 mM NaCl, pH 7; aggregate/monomer ratio from peak areas
[5] = SEC; 1P at an isolated protein concentration of 45 µM; monomer against aggregate
[6] = SEC; Superdex 200 10/300, 4 °C, 0.75 mL/min, assay buffer; protein as isolated; soluble aggregate at the void volume against the monomer

Substance: MBP-Ssp^N-H6 (25P)
- aggregated fraction (SEC) [1]: high-molecular weight aggregate fraction (ca. 66%)
- monomeric fraction (SEC) [1]: a monomeric fraction (ca. 34%)

Substance: 14P, MBP fusion of Aes^N aa69-120
- aggregated fraction (SEC) [2]: 9% at 30 µM and 15% at 150 µM
- aggregated fraction (SEC) [3]: 9% at 30 µM and 15% at 150 µM

Substance: GFP-Npu^N-H6 (27P)
- monomeric fraction (SEC) [1]: this precursor existed to only 43% as a monomer

Substance: 13P, MBP fusion of Aes^N aa62-120
- aggregated fraction (SEC) [2]: showed a significant aggregated fraction (53%)

Substance: MBP-Aes^N-H6 (1P)
- monomeric fraction (SEC) [4]: 19% measured for the WT (1P)
- monomeric fraction (SEC) [5]: at 45 µM and 135 µM only about 4% and no detectable monomeric species were present
- aggregated fraction (SEC) [6]: about 71% of the protein
- monomeric fraction (SEC) [6]: about 29%
